In the RNAGym collection of RNA variant scans (doi:10.1073/pnas.2313332121):

B1: TPR t1 (parent)
chain: GACCAAUCUGCCCUCAGAGCUCGAGAACAUCUUCGGAUGCAGAGGAGGCAGGCUUCGGUGGCGCGAUAGCGCCAACGUCCUCAACCUCCAAUGCAUCCCACCACAUGAUGAUGCCUGAAGAGCCUUGGUUUUUUG

Variants of: B1
Assay: polymerase ribozyme fitness, log enrichment relative to wild type (log ratio); higher = more active; in vitro selection for triplet polymerase activity
Procedure, shortened: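 Each subunit of a heterodimeric triplet polymerase ribozyme was represented by a PCR-built, transcribed mutant library that underwent triplicate single-round in vitro selection with frozen incubation at −7 °C. Extended constructs were recovered by gel excision, streptavidin-bead capture and RT-PCR, and Illumina sequencing of input and output libraries kept genotypes with ≥10 input reads and ≥1 read per output. Fitness is the logarithm of genotype enrichment relative to wild-type enrichment, from inverse-variance-weighted replicate averages, with a logarithm base of 2.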

Variant	polymerase ribozyme fitness (log ratio)
GACCAAUCUGCCCUCAGAGCUCGAGAACAUCUUCUGAUCCAGAGGAGGCAGGCUUCGGUGGCGCGAUAGCGCCAACGUCCUCAACCUCCAAUGCAUCCCACCACAUGAUGAUGCCUGAAAAGCCAUGGUUUUUUG	-5.76
GACCAAUCUGCCCUCAGAGCUCGAGAACAUCUUCUGAUGCAGAGGAGGCAGGCUUCGGUGGCGCGAUAGCGCCAACGUCCUCAACCUCCAAUGCAUUCCACCACAUGAUGAUGCCUGAAUAGCCUUGGUUUUUUG	-5.69
GACCAAUCUGCCCUCAGAGCUCGAGAACAUCUUCUGAUGCAGAGGAGGCAGGCUUCGGUGUCGCGAUAGCGCCAACGUCCUCAACCUCCAAUGUAUCCCACCACAUGAUGAUGCCUGAAGAGCUUUGGUUUUUUG	-4.83
GACCAAUCUGCCCUCAGAGCUCGAGAACAUCUUCGAAUGCAGAGGUGGCAGGCUUCGGUGGCGCGAUAGCGCCAACGUCCUCGACCUCCAAUGCAUCCCACCACAUGAUGAUGCCUGAAGAGCCUUGGUUUUUUG	-3.05
GACCAAUCUGCCCUCAGAGCUCGAGAACAUCUUCUGAUGCAGAGGAGGCAGGCUUCGGUGGCGCGAUAGCGCCAACGUCCUCAACCUCCAAUGCAUCCCACCACAUGAUGAUGCCUGAAGAGCCUUGGUCUUUUG	-5.09
GACCAAUCUGCCCUCAGAGCUCGAGAACAUCUUCUGAUGCAGAGGAGGCAGGCUUCGGUGGCGCGAGAGCGCCAACGUCCUCAACCUCCAAUGCAUCCCACCACAUGAAGAUGCUUGAAGAGCCUUGGUUUUUUG	-7.12
GACCAAUCUGCCCUCAGAGCUCGAGAACAUCUUCGAUUGCAGAGGAGGCAGGCUUCGGUGGCGCGAUAGCGCCAACGUCCUCAACUUCCAAUGCAUCCCACCACAUGAUGAAGCCUGAAUAGCCUUGGUUUUUUG	-5.12
GACCAAUCUGCCCUCAGAGCUCGAGAACAUCUUCUGAUGCAGAGGAGCCAGGCUUCGGUGGCGCGAUAGCGCCAACGUCCUCAACCUCCAAUGCAUCCCACCACAUGAUGAUGCCUGAAGCGCCUUGGUUUUUUG	-3.96
GACCAAUCUGCCCUCAGAGCUCGAGAACAUCUUCUGAUGCAGAGGAGGCAGGCUUCGGUGGCGCGAUAGCGCCAACGUCCUCAACCUCCAAUGCAUCCCACCACAUGAUGACGCCUGAAGAGCCUUGGUUUUUUG	-3.04
GACCAAUCUGCCCUCAGAGCUCGAGAACAUCUUCUGAUGCAGAGGAGGCAGGCUUCGGUGGCGCUAUAGCGCCAACGUCCUCAACCUCCAAUGCAUCCCACCACAUGAUGAUGCCUGAAGGGCCUUGGUUUUUUG	-5.82
GACCAAUCUGCCCUCAGAGCUCGAGAACAUCUUCUGAUGCAGAGGAGGCAGGCUUCGGUGGCGCGAUAGCGCCAACGACCUCAACUUCCAAUACAUCCCACCACAUGAUGAUGCCUGAAGAAACUUGGUUUUUUG	-6.42
GACCAAUCUGCCCUCAGAGCUCGAGAACAUCUUCUGAUGCAGAGGAGGCAGGCUUCGGUGGCGCGAUAGCGCCAACGUCCUCAACCUCCAAUGCAUCCCAACACAUGAUGAUCCCUGAAGAGCCUUGGUUUUUUG	-6.29
GACCAAUCUGCCCUCAGAGCUCGAGAACAUCUUCUGAUGCAGAGGAGGCAGGCUUCGGUGGCGCGAUAGCGCCAACGUCCUCAACCUCCAAUGCAUCCCAACACAUGAUGAUGCUUGAAGAGCCUUGGUUUUUUG	-6.19
GACCAAUCUGCCCUCAGAGCUCGAGAACAUCUUCGAAUGCCGUGGAGGCAGGCUUCGGUGGCGCGAUAGCGCCAACGUCCUCAACCUACAAUGCAUCCCACCACCUGAUGAUGCCUGAAGAGGCUUGGUUUUUUG	-5.88
GACCAAUCUGCCCUCAGAGCUCGAGAACAUCUUCUGAUGCAGAGGAGGCAGGCUUCGGUGACGCGAUAGCGCCAACGUCCUCAAACUCCAAUGCAUCCCACCACAUGAUGAUGGCUGAAGAGCCUUGGUUGUUUG	-6.32
GACCAAUCUGCCCUCAGAGCUCGAGAACAUCUUCUGAUGCAGAGGAGGCAGGCCUCGGUGGCGGGAUAGCGCCAAGGUCCUCAAUCUCCAAUGCAUCCCACCACAUGAUGAUUCCUGAAGAGCCUUGGUUUUUUG	-7.14
GACCAAUCUGCCCUCAGAGCUCGAGAACAUCUUCUGAUGCAGAGGAGGCAGGCUUCGGAGGCGCGAUAGCGCCAACGUCCUCAACCUCCAAUGCAUCCCACCACAUGAUGAUGCCUGAAGAGCCUUGGUUUUUUG	-6.05
GACCAAUCUGCCCUCAGAGCUCGAGAACAUCUUCGAAUGCAGAGGCGGCAGGCUUCGGUGGCGCGAUAGCGCCAACGUCCUCAACCUCCAAUGCAUCCCACCAUAUGAUGAUGCCAGAAGAGCCUUGGUUUUUUG	-3.8
GACCAAUCUGCCCUCAGAGCUCGAGAACAUCUUCUGAUGCAGAGGAGGCAGGCUUCGGUGACGCGAUAGCGCCAACGUCCUCAACCUCCAAUGCAUCCCACCACAUGAUGAUGCCUGAAGAGCCUUGGUUUUUUG	-4.27
GACCAAUCUGCCCUCAGAGCUCGAGAACAUCUUCUGAUGCAGAGGAGGCAGGCUUCGGUGGCGCGAUAGCGCCAACGUCCUCAACCUCCAAUGCAUCCCACCACAUGAUGAUGCCUGAAGAGGCUUGGUUUUUUG	-2.32
GACCAAUCUGCCCUCAGAGCUCGAGAACAUCUUCUGAUGCAGAGUAGGCAGGCUUCGGUGUCGCGAUAGCGCCAACGUCCUCAACCUCCAAUGCAUACCACCACAUGAUGAUGCCUGAAGAGGCUUGGUUUUUUG	-5.69

Variant	polymerase ribozyme fitness (log ratio)
GACCAAUCUGCCCUCAGAGCUCGAGAACAUCUUCUGAUGCAGAGAAGGCAGGCUUCGGUGGCGCGAUAGCGCCAACGUCCUCAACCUCCAAUGCAUCCCACCACAUGAUGAUGCCUGAAGAGCCUUGGUUUUUUG	-5.37
GACCAAUCUGCCCUCAGAGCUCGAGAACAUCUUCGAGUGCAGAGGAGGCAGCCUUCGGUGGCGCGAUAGCGCCAACGUCCUCAACCUCCAAUGCAUCCCACCACAUGAUGAUGCCUGAAGAGCCUUGGUUUUUUG	-4.05
GACCAAUCUGCCCUCAGAGCUCGAGAACAUCUUCUGAUGCAGAGGAGGCAGGCUUCGGUGGCGCGAUAGCGCCAACGUCCUCAACCUCCAAUGCAUCCCAUCACAUGAUGAUGCCUGAAGAGCCUUGGUUUUUUG	-6.26
GACCAAUCUGCCCUCAGAGCUCGAGAACAUCUUCUGAUGCAGAGGAGGCAGGCUUCGGUGGCGCGAUAGCGCCAACGUCCUCAACCUCCAAUGCAUCCCAACACAUGAUGAUGCCUGAAGAGCCUUGGUUUUUUG	-4.48
GACCAAUCUGCCCUCAGAGCUCGAGAACAUCUUCUGAUGCAGAGGAGGCAGGCUUCGGUGGCGCGAUAGCGCCAACGUCCUCAACCUCCAAUGCAUCCCACCACAUGAUGAUCCCUGAAGAGCCUUGGUUUUUUG	-7.04
GACCAAUCUGCCCUCAGAGCUCGAGAACAUCUUCGAAUGCAGAGGAGGCAGGUUUCGGUGGCGCGAUAGCGCCAACGUCCUCAACCUCCAAUGCAUCCCACCACAUGAUGAUGCCUGAAGAGCCUAGGGUUUGUG	-4.06
GACCAAUCUGCCCUCAGAGCUCGAGAACAUCUUCGAAUGCAGAGGAGGGAGGCUUCGGUGGCGCGAUAUCGCCAACGUCCUCAACCUCCGAUGCAUUCCACCACAUGAUGAUGCCUGAACAGCCUUGGUUUUUUG	0.538
GACCAAUCUGCCCUCAGAGCUCGAGAACAUCUUCGAAUGCAGAGGUGGCAGGCUUCGGUCGCGCGAUAGCGCCAACGUCCUCAACCUCCAAUGCAUCCCACCACAUGAUGAUGCCUGAAGAGCUUUGGUUUUUUG	-0.384
GACCAAUCUGCCCUCAGAGCUCGAGAACAUCUUCGAAUGCAGAGGAGGCAGGCUUCGGUGGCGCGAUAGCGCCAACGUCCUCAACCUCCAAUGCAUCCCACCACAUGAUGGUGCCUGAAGAGCCUUGGUUUUUUG	-3.41
GACCAAUCUGCCCUCAGAGCUCGAGAACAUCUUCUGAUGCAGAGGAGGCAGGCUUCGGUGGCGCGAUAGCGCCAACGUCCUCAACCUCCAAUGCAUCCCACCACAUGAUGAUCCCUGAAAAGCCUUGGUUUUUUC	-5.82
GACCAAUCUGCCCUCAGAGCUCGAGAACAUCUUCGAAUGCAGUGGAGGCAGGCUUCGGUGGCGCGAUAGCGCCAACGUCCUCAACCUCCAAUGCAUCCCACCACAUGAUGAUGCCUGAAGAGCCUUGGUUUUUUG	-2.94
GACCAAUCUGCCCUCAGAGCUCGAGAACAUCUUCUGAUGCAGAGGAGGCAGGCUUCGGUGGCGCGAUAGCGCCAACGUCCUCAACCUCCAAUGCAUCCCACCACAUGAUGAUGCCUAAAGAGCCUUGGUUUUUUG	-5.15
GACCAAUCUGCCCUCAGAGCUCGAGAACAUCUUCGAAUGCUGAGGAGGCAGGCUUGUGUGGCGCGAUAGCGCCAACGUCCUCAACCUCCAAUGCAUCCCACCACAUGAUGAUGCCUGAAGAGCCUUGGUUUUUUG	-3.93
GACCAAUCUGCCCUCAGAGCUCGAGAACAUCUUCUGAUGCAGAGGAGGCAGGCUUCGGUGGCUCGAUAGCGCCAACGUCCUCAACCUCCAAUGCAUCCCACCAGAUGAUGAUGCCUGAAGAGCCUUGGUUUUUUG	-7.12
GACCAAUCUGCCCUCAGAGCUCGAGAACAUCUUCGAAUGCAGGGGAGGCAGGCUUCGGUGGCGCGAUAGCGCCAACGUCCUCAACCUCCAAUGCAUCCCACCACUUGAUGACGCCUGAAGAGCCUUGGUUUUUUG	-5.32
GACCAAUCUGCCCUCAGAGCUCGAGAACAUCUUCUGAUGCAGAGGAGGCAGGCUUCGGUGGCGCGAUAGCGCCAACGUCCUCAACCUCCAAUGCAUCCCACCACACGAUGAUGCCUGAAGAACCUUGGUUUUUUG	-6.34
GACCAAUCUGCCCUCAGAGCUCGAGAACAUCUUCGAAUGCAGAGGUGGCAGGCUUCUGUGGCGCGAUAGCGCCAACGUCCUCAACCUCCAAUGCAUCCCACCAUAUGAUGAUGCCUGAAGAGCCUUGGUUUUUUG	-1.52
GACCAAUCUGCCCUCAGAGCUCGAGAACAUCUUCGAAUGCAGAGGAGGCAGGCUUCGGUGGCGCGAUAGCGCCAACGUCCUCCACCUCCAAUGCAUCCCACCACAUGAUGAUGCCUGAAGAGCCUUGGUUUUUUG	-1.41
GACCAAUCUGCCCUCAGAGCUCGAGAACAUCUUCUGAUACAGAGGAGGCAGGCUUCGGUGGCGCGAUAGCGCCAACGUCGUCAACCUCCAAUGCAUUCCACCACAUGAUGAUGACUGAAGAGCCUUGGUUUUUUG	-6.51
GACCAAUCUGCCCUCAGAGCUCGAGAACAUCUUCUGAUGCAGAGGAGGCAGGCUUCGGUGGCGCGAUAGCGCCAACGUCCUCAACCUCCAAUGCAUCCCACCACAUGAUGAUGCCUGAAUAGCCUUGGUUUUUUG	-5.06
GACCAAUCUGCCCUCAGAGCUCGAGAACAUCUUCUGAUGCAGAGGAGGCAGGCUUCGGUGGCGCGAUAGCGCCAACGACCUCAACCUCCAAUGCAUCCCACCACAUGAUGAUGCCUGAAGAGCCUUGGUUUUUUG	-5.42
